Biological target: HLA-B*44:05 (Homo sapiens, UniProt P01889, A223V/A65T/A93T/A95T/D201E/D98Y/E176V/E187L/E204Q/E69K/G107R/H137Y/K202T/L105A/L119I/N104T/N87E/Q56L/Q94N/R106L/R155S/R180D/S101N/S121R/S35A/S48T/T118I/V36M/W191S/Y91S)
Assay: MHC binding assay (UV-ligand exchange, β2m ELISA, peptide exchange yield)
Settings: binding to HLA-B*44:05
Procedure, shortened: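 Binding is read as exchange yield, i.e. stabilized complex remaining after UV cleavage of a photolabile ligand in the presence of the candidate peptide. Streptavidin-captured monomers (100-fold dilution) are probed with HRP-anti-β2m, 1h at 37° C, TMB, A450. Standard curve: HLA-A*02:01/MLA-001 monomers at 15-500 ng/ml.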

Substance | Peptide exchange (MHC class I binding score, peptide exchange yield)
221 (KEAFGPQAL; listed as Homo sapiens) [compound 221] | ++++ (>75% = ++++)
222 (SEDTIHTHL; listed as Homo sapiens) [compound 222] | +++ (>50 = +++)
223 (SEVEGLAFV; listed as Homo sapiens) [compound 223] | +++ (>50 = +++)
224 (TETDIDREY; listed as Homo sapiens) [compound 224] | ++ (>20% = ++)
225 (VEAATVSKW; listed as Homo sapiens) [compound 225] | +++ (>50 = +++)
226 (AEDNMVTSY; listed as Homo sapiens) [compound 226] | +++ (>50 = +++)
227 (ALTEDSIDDTF; listed as Homo sapiens) [compound 227] | + (>10% = +)
228 (LEYEAPKLY; listed as Homo sapiens) [compound 228] | ++ (>20% = ++)
229 (AEDLEKKYA; listed as Homo sapiens) [compound 229] | ++ (>20% = ++)
230 (AEALVDGKW; listed as Homo sapiens) [compound 230] | +++ (>50 = +++)
231 (AEALVDGKWQEF; listed as Homo sapiens) [compound 231] | +++ (>50 = +++)
232 (YEIRAEAL; listed as Homo sapiens) [compound 232] | ++ (>20% = ++)
233 (QEDKATQTL; listed as Homo sapiens) [compound 233] | ++++ (>75% = ++++)
234 (TEEPQRLFY; listed as Homo sapiens) [compound 234] | + (>10% = +)
235 (SESLPRAPL; listed as Homo sapiens) [compound 235] | +++ (>50 = +++)
236 (LEDQLKPMLEW; listed as Homo sapiens) [compound 236] | +++ (>50 = +++)
237 (QEIGQKTSV; listed as Homo sapiens) [compound 237] | +++ (>50 = +++)

The next lines start with the values.

Peptide exchange (MHC class I binding score, peptide exchange yield) | Substance
+++ (>50 = +++) | 238 (VEDDNYKLSL; listed as Homo sapiens) [compound 238]
++ (>20% = ++) | 239 (DEDYTYLIL; listed as Homo sapiens) [compound 239]
+++ (>50 = +++) | 240 (MELQVSSGF; listed as Homo sapiens) [compound 240]
++++ (>75% = ++++) | 241 (QELLDIANYL; listed as Homo sapiens) [compound 241]
+++ (>50 = +++) | 242 (CDAQIQYSY; listed as Homo sapiens) [compound 242]
++++ (>75% = ++++) | 243 (VEQINISQDW; listed as Homo sapiens) [compound 243]
+++ (>50 = +++) | 244 (VESSQAFTW; listed as Homo sapiens) [compound 244]
+++ (>50 = +++) | 245 (MEFQGPMPAGM; listed as Homo sapiens) [compound 245]
+++ (>50 = +++) | 246 (HEHGLFNLY; listed as Homo sapiens) [compound 246]
+++ (>50 = +++) | 247 (KESMLKTTL; listed as Homo sapiens) [compound 247]
+++ (>50 = +++) | 248 (KESQLPTVMDF; listed as Homo sapiens) [compound 248]

From US12065471B2, “B*44 restricted peptides for use in immunotherapy against cancers and related methods” (Immatics Biotechnologies GmbH, priority 2018, dated 2024)
